Reference: US20260097113A1 (Pfizer, published 2026)

Assays:
[1] = biological target: RSV A + RSV B bivalent composition (RSV subtype A; RSV subtype B); experiment: AM14 Fab titration by SEC; composition of Table 14; Annealing Ramp Aggressive cycle
[2] = biological target: RSV A + RSV B bivalent composition (RSV subtype A; RSV subtype B); experiment: AM14 Fab titration by SEC; Target cycle; 1 M 40°C
[3] = biological target: RSV A + RSV B bivalent composition (RSV subtype A; RSV subtype B); experiment: AM14 Fab titration by SEC; High-Slow 2 cycle; 3 M 2-8°C
[4] = biological target: RSV A + RSV B bivalent composition (RSV subtype A; RSV subtype B); experiment: AM14 Fab titration by SEC; Low-Fast cycle; 1 M 40°C (second value)
[5] = biological target: RSV A + RSV B bivalent composition (RSV subtype A; RSV subtype B); experiment: AM14 Fab titration by SEC; Low-Fast cycle; 1 M 2-8°C
[6] = biological target: RSV A + RSV B bivalent composition (RSV subtype A; RSV subtype B); experiment: AM14 Fab titration by SEC; composition of Table 14; Target lyophilization cycle, T0
[7] = biological target: RSV A + RSV B bivalent composition (RSV subtype A; RSV subtype B); experiment: AM14 Fab titration by SEC; High-Slow 2 cycle; 8 M 2-8°C
[8] = biological target: T1, RSV F protein of subtype A comprising a polypeptide of SEQ ID NO: 1 and a polypeptide of SEQ ID NO: 2 (RSV subtype A, UniProt P11209 137-513; P03420 26-109); experiment: AM14 ELISA; F1 (pH 8, 100 mM NaCl, 0% sucrose); 2 wk 5°C
T1 construct: Stabilized prefusion F trimer made of three F2-F1 heterodimers; Produced recombinantly in CHO cells; also called RSV A; RSVA
T1 chain 1: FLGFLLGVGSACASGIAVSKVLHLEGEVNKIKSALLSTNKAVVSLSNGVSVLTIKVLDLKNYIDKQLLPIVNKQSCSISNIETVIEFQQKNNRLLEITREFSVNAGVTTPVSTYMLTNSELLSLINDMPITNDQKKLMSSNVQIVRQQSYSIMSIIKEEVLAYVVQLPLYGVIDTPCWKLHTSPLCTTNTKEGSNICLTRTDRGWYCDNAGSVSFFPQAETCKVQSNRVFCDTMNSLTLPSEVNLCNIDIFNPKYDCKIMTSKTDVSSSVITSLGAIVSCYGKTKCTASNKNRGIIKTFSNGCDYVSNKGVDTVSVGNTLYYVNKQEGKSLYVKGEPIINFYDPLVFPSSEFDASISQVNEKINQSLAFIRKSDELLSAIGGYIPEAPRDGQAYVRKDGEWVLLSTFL
T1 chain 2: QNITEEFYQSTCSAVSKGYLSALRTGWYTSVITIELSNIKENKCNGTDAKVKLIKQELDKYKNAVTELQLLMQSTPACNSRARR

[9] = biological target: T2, RSV F protein comprising a polypeptide of SEQ ID NO: 3 and a polypeptide of SEQ ID NO: 4 (RSV subtype B, UniProt O36634 137-513; O36634 26-109); experiment: AM14 prefusion assay relative to standard; RSV B 480 µg/mL, 2% sucrose + 4% mannitol; post-lyo 2 months at 5°C
T2 construct: also called RSV B; RSVB
T2 chain 1: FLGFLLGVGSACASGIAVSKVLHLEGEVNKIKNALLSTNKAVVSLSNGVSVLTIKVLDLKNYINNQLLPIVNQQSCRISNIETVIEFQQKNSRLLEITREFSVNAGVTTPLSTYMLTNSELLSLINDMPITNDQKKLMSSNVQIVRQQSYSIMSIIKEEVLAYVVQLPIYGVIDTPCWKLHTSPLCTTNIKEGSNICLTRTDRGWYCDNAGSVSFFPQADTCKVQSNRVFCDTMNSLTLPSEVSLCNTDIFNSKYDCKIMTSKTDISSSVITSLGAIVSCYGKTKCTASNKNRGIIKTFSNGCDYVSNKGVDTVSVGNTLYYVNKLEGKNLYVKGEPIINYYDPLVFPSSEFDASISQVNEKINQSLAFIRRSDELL
T2 chain 2: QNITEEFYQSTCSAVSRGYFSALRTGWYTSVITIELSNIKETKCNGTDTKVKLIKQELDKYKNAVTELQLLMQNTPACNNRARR

[10] = biological target: T1, RSV F protein of subtype A comprising a …; experiment: AM14 ELISA; F17 (pH 7, 50 mM NaCl, 4.5% trehalose); 2 wk 25°C
[11] = biological target: T1, RSV F protein of subtype A comprising a …; experiment: AM14 ELISA; F17 (pH 7, 50 mM NaCl, 4.5% trehalose); 1 wk 25°C
[12] = biological target: T1, RSV F protein of subtype A comprising a …; experiment: AM14 ELISA; F5 (pH 6, 100 mM NaCl, 9.0% sucrose); T0
[13] = biological target: T1, RSV F protein of subtype A comprising a …; experiment: AM14 ELISA; F13 (pH 7, 100 mM NaCl, 4.5% sucrose); 2 wk 25°C
[14] = biological target: T1, RSV F protein of subtype A comprising a …; experiment: AM14 ELISA; F8 (pH 7, 50 mM NaCl, 0% sucrose); 1 wk 5°C
[15] = biological target: T1, RSV F protein of subtype A comprising a …; experiment: AM14 ELISA; F16 (pH 6, 0 mM NaCl, 0% sucrose); 1 wk 5°C

## AM14 Fab
[1]
  Prefusion Content (%): 81%
[2]
  Prefusion Content (%): 64%
[3]
  Prefusion Content (%): 62%
[4]
  Prefusion Content (%): 70%
[5]
  Prefusion Content (%): 53%
[6]
  Prefusion Content (%): 80%
[7]
  Prefusion Content (%): 72%

B1: AM14 (trimeric prefusion specific antibody of the AM14 ELISA) (antibody, V domains shown)
VH: EVQLVESGGGVVQPGRSLRLSCAASGFSFSHYAMHWVRQAPGKGLEWVAVISYDGENTYYADSVKGRFSISRDNSKNTVSLQMNSLRPEDTALYYCARDRIVDDYYYYGMDVWGQGATVTVSS
VL: DIQMTQSPSSLSASVGDRVTITCQASQDIKKYLNWYHQKPGKVPELLMHDASNLETGVPSRFSGRGSGTDFTLTISSLQPEDIGTYYCQQYDNLPPLTFGGGTKVEIKR
notes: Antibody as used in the AM14 ELISA, detected with an HRP-labeled secondary antibody
[8]
  AM14 prefusion content (%), relative to standard: 100%
[9]
  AM14 prefusion content (%), relative to standard: 101%
[10]
  AM14 prefusion content (%), relative to standard: 64%
[11]
  AM14 prefusion content (%), relative to standard: 105%
[12]
  AM14 prefusion content (%), relative to standard: 91%
[13]
  AM14 prefusion content (%), relative to standard: 37%
[14]
  AM14 prefusion content (%), relative to standard: 99%
[15]
  AM14 prefusion content (%), relative to standard: 65%
